Ends that are not written are not given here.
Target: Kelch domain of human Keap1 (residues 321-609) (human, UniProt Q14145 321-609)
Test: ITC

Kelch domain of human Keap1 (residues 321-609), sequence (Q14145 321-609): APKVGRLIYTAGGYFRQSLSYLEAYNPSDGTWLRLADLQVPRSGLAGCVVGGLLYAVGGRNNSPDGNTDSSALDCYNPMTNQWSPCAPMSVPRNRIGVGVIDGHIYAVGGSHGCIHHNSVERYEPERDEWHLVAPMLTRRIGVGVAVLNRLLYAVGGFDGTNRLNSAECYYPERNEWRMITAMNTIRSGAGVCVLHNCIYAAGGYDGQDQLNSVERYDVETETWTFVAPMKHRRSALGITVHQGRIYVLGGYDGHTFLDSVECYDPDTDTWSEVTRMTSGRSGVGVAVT

Binder SLEEPHSPETGEKVVAGEVN (also: phosphoserine (S286), position in chain not placed) [WTX pS286 peptide (20-mer, S286 phosphorylated)] has a dH of -45.3 ± 0.586 kJ/mol.
